Experimental findings from FireProtDB (doi:10.1021/bi00067a022) are described below.

B1: Ribonuclease, P00648 (parent)
chain: MMKMEGIALKKRLSWISVCLLVLVSAAGMLFSTAAKTETSSHKAHTEAQVINTFDGVADYLQTYHKLPDNYITKSEAQALGWVASKGNLADVAPGKSIGGDIFSNREGKLPGKSGRTWREADINYTSGFRNSDRILYSSDWLIYKTTDHYQTFTKIR

The variants in this data set derive from B1. To be noted: Bacillus amyloliquefaciens, pH 6.3, 25 °C, Fluorescence, MES 450 mM, reversible: yes, structure 1BNI, whole UniProt chain shown.

Regarding MMKMEGIALKKRLSWISVCLLVLVSAAGMLFSTAAKTETSSHKAHTEAQVINTFDGVADYLQTYHKLPDNYITKSEAQALGWVASKGNLADVAPGKSIGGDIFSNREGKLPGKSGRTWREADINYTSGFRNCDRILYSSDWLIYKTTDCYQTFTKIR [S132C H149C], under “GdnHCl”, the “ddG of mutation (higher = less stable)” value is -4.1 kcal/mol, the denaturant m value was 4.3 kcal/mol/M, the “denaturant midpoint (higher = more stable)” value is 3 M and the unfolding free energy stood at 12.9 kcal/mol.
Turning to MMKMEGIALKKRLSWISVCLLVLVSAAGMLFSTAAKTETSSHKAHTEAQVINTFDGVADYLQTYHKLPDNYITKSEAQALGWVASKGNLCDVAPGKSIGGDIFSNREGKLPGKSGRTWREADINYTCGFRNSDRILYSSDWLIYKTTDHYQTFTKIR [A90C S127C], where the note is “Urea”, the “ddG of mutation (higher = less stable)” value was -1.21 kcal/mol, the denaturant m value is 1.73 kcal/mol/M, the “denaturant midpoint (higher = more stable)” value was found to be 5.77 M and the unfolding free energy was 10 kcal/mol.
